Source: doi:10.1101/2024.10.15.618391
“And” between values parts separate entries of the source, which are not always exact repeats. Identical values can stand only once. Like-named read-outs stand apart in the source and are kept apart here.

Tests used:
Assay in all cases: BLI
[1] = target: His6-SeSepF (Spiroplasma eriocheiris SepF) (Spiroplasma eriocheiris)
[2] = target: His6-SeSepF (Spiroplasma eriocheiris SepF) (Spiroplasma eriocheiris); remark: listed apart in the source
[3] = target: His6-SeSepF (Spiroplasma eriocheiris SepF) (Spiroplasma eriocheiris); remark: listed apart in the source

Kd [2] | Kd [3] | Substance | Kd [1]
 |  | SeFtsZ L272E mutant (from UniProt A0A0H3XMR3 1-411) (natural protein) | 980 nM and 700 nM
1040 nM | 53.9 µM | Spiroplasma eriocheiris FtsZ, His-tag removed (from UniProt A0A0H3XMR3 1-411) (natural protein) | 1130 nM
